Assay results taken from patent US10919943B2, “Mutant proteins enabling agrochemical control of plant gene expression” (The Regents of the University of California, priority 2016, dated 2021).
Substitutions are numbered along the chain they refer to. Numbers in names are those of the source.

T1: PYR1 (Arabidopsis thaliana, UniProt O49686)
T1 construct: expressed in transfected cells; host or cells: S. cerevisiae strain Y190
T1 sequence (O49686 1-191): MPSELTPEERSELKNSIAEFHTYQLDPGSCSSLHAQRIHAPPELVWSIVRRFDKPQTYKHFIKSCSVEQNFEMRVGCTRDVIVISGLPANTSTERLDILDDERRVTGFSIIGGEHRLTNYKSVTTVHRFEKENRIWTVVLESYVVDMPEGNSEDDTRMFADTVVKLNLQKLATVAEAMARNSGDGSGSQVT

B1: Y404N: HAB1 mutant (protein, UniProt Q9CAJ0 23-511, looked up, variant Y404N)
Protein phosphatase 2C 16: SPVEITQLKNVTDAADLLSDSENQSFCNGGTECTMEDVSELEEVGEQDLLKTLSDTRSGSSNVFDEDDVLSVVEDNSAVISEGLLVVDAGSELSLSNTAMEIDNGRVLATAIIVGESSIEQVPTAEVLIAGVNQDTNTSEVVIRLPDENSNHLVKGRSVYELDCIPLWGTVSIQGNRSEMEDAFAVSPHFLKLPIKMLMGDHEGMSPSLTHLTGHFFGVYDGHGGHKVADYCRDRLHFALAEEIERIKDELCKRNTGEGRQVQWDKVFTSCFLTVDGEIEGKIGRAVVGSSDKVLEAVASETVGSTAVVALVCSSHIVVSNCGDSRAVLFRGKEAMPLSVDHKPDREDEYARIENAGGKVIQWQGARVFGVLAMSRSIGDRNLKPYVIPEPEVTFMPRSREDECLILASDGLWDVMNNQEVCEIARRRILMWHKKNGAPPLAERGKGIDPACQAAADYLSMLALQKGSKDNISIIVIDLKAQRKFKTRT
B2: Y404P: HAB1 mutant (protein, UniProt Q9CAJ0 23-511, looked up, variant Y404P)
Protein phosphatase 2C 16: B1 Protein phosphatase 2C 16 with N382P
B3: Y404Q: HAB1 mutant (protein, UniProt Q9CAJ0 23-511, looked up, variant Y404Q)
Protein phosphatase 2C 16: B1 Protein phosphatase 2C 16 with N382Q
B4: Y404R: HAB1 mutant (protein, UniProt Q9CAJ0 23-511, looked up, variant Y404R)
Protein phosphatase 2C 16: B1 Protein phosphatase 2C 16 with N382R
B5: Y404S: HAB1 mutant (protein, UniProt Q9CAJ0 23-511, looked up, variant Y404S)
Protein phosphatase 2C 16: B1 Protein phosphatase 2C 16 with N382S
B6: Y404T: HAB1 mutant (protein, UniProt Q9CAJ0 23-511, looked up, variant Y404T)
Protein phosphatase 2C 16: B1 Protein phosphatase 2C 16 with N382T
B7: Y404D: HAB1 mutant (protein, UniProt Q9CAJ0 23-511, looked up, variant Y404D)
Protein phosphatase 2C 16: B1 Protein phosphatase 2C 16 with N382D
B8: Y404E: HAB1 mutant (protein, UniProt Q9CAJ0 23-511, looked up, variant Y404E)
Protein phosphatase 2C 16: B1 Protein phosphatase 2C 16 with N382E
B9: Y404G: HAB1 mutant (protein, UniProt Q9CAJ0 23-511, looked up, variant Y404G)
Protein phosphatase 2C 16: B1 Protein phosphatase 2C 16 with N382G
B10: Y404K: HAB1 mutant (protein, UniProt Q9CAJ0 23-511, looked up, variant Y404K)
Protein phosphatase 2C 16: B1 Protein phosphatase 2C 16 with N382K
B11: E201H: HAB1 mutant (protein, UniProt Q9CAJ0 23-511, looked up, variant E201H)
Protein phosphatase 2C 16: B1 Protein phosphatase 2C 16 with E179H, N382Y
B12: E201K: HAB1 mutant (protein, UniProt Q9CAJ0 23-511, looked up, variant E201K)
Protein phosphatase 2C 16: B1 Protein phosphatase 2C 16 with E179K, N382Y
B13: E203T: HAB1 mutant (protein, listed as Arabidopsis thaliana)
chain: MEEMTPAVAMTLSLAANTMCESSPVEITQLKNVTDAADLLSDSENQSFCNGGTECTMEDVSELEEVGEQDLLKTLSDTRSGSSNVFDEDDVLSVVEDNSAVISEGLLVVDAGSELSLSNTAMEIDNGRVLATAIIVGESSIEQVPTAEVLIAGVNQDTNTSEVVIRLPDENSNHLVKGRSVYELDCIPLWGTVSIQGNRSEMTDAFAVSPHFLKLPIKMLMGDHEGMSPSLTHLTGHFFGVYDGHGGHKVADYCRDRLHFALAEEIERIKDELCKRNTGEGRQVQWDKVFTSCFLTVDGEIEGKIGRAVVGSSDKVLEAVASETVGSTAVVALVCSSHIVVSNCGDSRAVLFRGKEAMPLSVDHKPDREDEYARIENAGGKVIQWQGARVFGVLAMSRSIGDRYLKPYVIPEPEVTFMPRSREDECLILASDGLWDVMNNQEVCEIARRRILMWHKKNGAPPLAERGKGIDPACQAAADYLSMLALQKGSKDNISIIVIDLKAQRKFKTRT
B14: E203W: HAB1 mutant (protein, listed as Arabidopsis thaliana)
chain: B13 chain with T203W
B15: E203D: HAB1 mutant (protein, listed as Arabidopsis thaliana)
chain: B13 chain with T203D
B16: H245A: HAB1 mutant (protein, UniProt Q9CAJ0 23-511, looked up, variant H245A)
Protein phosphatase 2C 16: B1 Protein phosphatase 2C 16 with H223A, N382Y
B17: H245L: HAB1 mutant (protein, UniProt Q9CAJ0 23-511, looked up, variant H245L)
Protein phosphatase 2C 16: B1 Protein phosphatase 2C 16 with H223L, N382Y
B18: H245M: HAB1 mutant (protein, UniProt Q9CAJ0 23-511, looked up, variant H245M)
Protein phosphatase 2C 16: B1 Protein phosphatase 2C 16 with H223M, N382Y
B19: H245N: HAB1 mutant (protein, UniProt Q9CAJ0 23-511, looked up, variant H245N)
Protein phosphatase 2C 16: B1 Protein phosphatase 2C 16 with H223N, N382Y
B20: H245P: HAB1 mutant (protein, UniProt Q9CAJ0 23-511, looked up, variant H245P)
Protein phosphatase 2C 16: B1 Protein phosphatase 2C 16 with H223P, N382Y
B21: H245Q: HAB1 mutant (protein, UniProt Q9CAJ0 23-511, looked up, variant H245Q)
Protein phosphatase 2C 16: B1 Protein phosphatase 2C 16 with H223Q, N382Y
B22: H245R: HAB1 mutant (protein, UniProt Q9CAJ0 23-511, looked up, variant H245R)
Protein phosphatase 2C 16: B1 Protein phosphatase 2C 16 with H223R, N382Y
B23: H245S: HAB1 mutant (protein, UniProt Q9CAJ0 23-511, looked up, variant H245S)
Protein phosphatase 2C 16: B1 Protein phosphatase 2C 16 with H223S, N382Y
B24: H245T: HAB1 mutant (protein, UniProt Q9CAJ0 23-511, looked up, variant H245T)
Protein phosphatase 2C 16: B1 Protein phosphatase 2C 16 with H223T, N382Y
B25: H245V: HAB1 mutant (protein, UniProt Q9CAJ0 23-511, looked up, variant H245V)
Protein phosphatase 2C 16: B1 Protein phosphatase 2C 16 with H223V, N382Y
B26: H245W: HAB1 mutant (protein, UniProt Q9CAJ0 23-511, looked up, variant H245W)
Protein phosphatase 2C 16: B1 Protein phosphatase 2C 16 with H223W, N382Y
B27: H245C: HAB1 mutant (protein, UniProt Q9CAJ0 23-511, looked up, variant H245C)
Protein phosphatase 2C 16: B1 Protein phosphatase 2C 16 with H223C, N382Y
B28: H245Y: HAB1 mutant (protein, UniProt Q9CAJ0 23-511, looked up, variant H245Y)
Protein phosphatase 2C 16: B1 Protein phosphatase 2C 16 with H223Y, N382Y
B29: H245D: HAB1 mutant (protein, UniProt Q9CAJ0 23-511, looked up, variant H245D)
Protein phosphatase 2C 16: B1 Protein phosphatase 2C 16 with H223D, N382Y
B30: H245E: HAB1 mutant (protein, UniProt Q9CAJ0 23-511, looked up, variant H245E)
Protein phosphatase 2C 16: B1 Protein phosphatase 2C 16 with H223E, N382Y
B31: H245F: HAB1 mutant (protein, UniProt Q9CAJ0 23-511, looked up, variant H245F)
Protein phosphatase 2C 16: B1 Protein phosphatase 2C 16 with H223F, N382Y
B32: H245G: HAB1 mutant (protein, UniProt Q9CAJ0 23-511, looked up, variant H245G)
Protein phosphatase 2C 16: B1 Protein phosphatase 2C 16 with H223G, N382Y
B33: H245I: HAB1 mutant (protein, UniProt Q9CAJ0 23-511, looked up, variant H245I)
Protein phosphatase 2C 16: B1 Protein phosphatase 2C 16 with H223I, N382Y
B34: H245K: HAB1 mutant (protein, UniProt Q9CAJ0 23-511, looked up, variant H245K)
Protein phosphatase 2C 16: B1 Protein phosphatase 2C 16 with H223K, N382Y
B35: G246A: HAB1 mutant (protein, UniProt Q9CAJ0 23-511, looked up, variant G246A)
Protein phosphatase 2C 16: B1 Protein phosphatase 2C 16 with G224A, N382Y

Target: T1, PYR1
Assay: Yeast two hybrid of pACT-HAB1 site saturation mutants with pBD-PYR1 on 10 μM ABA, β-galactosidase staining
Assay type: cell-based
Set-up: key: x: Mutations in HAB1 that disrupt HAB1 interaction with PYR1
Settings: S. cerevisiae Y190, 10 μM ABA; dead = lack of detectable staining in comparison to wild type control
Method in brief: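 Read-out is β-galactosidase staining of chloroform-lysed Y190 colonies grown 2 days at 30 °C on SD (-Leu,-Trp) plus 10 μM ABA. Each pACT-HAB1 single-substitution mutant (N-terminally truncated by three residues) was paired with pBD-PYR1; absence of detectable staining relative to wild type scored as dead.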

Mutations in HAB1 that disrupt HAB1 interaction with PYR1	Molecule
x	B1
x	B2
x	B3
x	B4
x	B5
x	B6
x	B7
x	B8
x	B9
x	B10
x	B11
x	B12
x	B13
x	B14
x	B15
x	B16
x	B17
x	B18

Mutations in HAB1 that disrupt HAB1 interaction with PYR1	Molecule
x	B19
x	B20
x	B21
x	B22
x	B23
x	B24
x	B25
x	B26
x	B27
x	B28
x	B29
x	B30
x	B31
x	B32
x	B33
x	B34
x	B35
